Reference: US8444970B2, “Compositions and methods for treating ocular diseases and conditions” (Lpath, Inc., priority 2006, dated 2013)

Tests used:
[1] = Competitive ELISA for specificity / cross-reactivity to bioactive lipids; format: binding; conditions: for recognition of ceramide-1-phosphate (C1P): competitor lipid C1P; for cross-reactivity to lysophosphatidic acid (LPA): competitor lipid LPA; for cross-reactivity with sphingosylphosphorylcholine (SPC): competitor lipid SPC
Protocol: Screening of serum and cell supernatant for S1P-specific antibodies was by direct ELISA using a thiolated S1P analog as the antigen. A standard ELISA was performed, as described below, except that 50 ul of sample (serum or cell supernatant) was diluted with an equal volume of PBS/0.1% Tween-20 (PBST) during the primary incubation. ELISAs were performed in 96-well high binding ELISA plates (Costar) coated with 0.1 μg of chemically-synthesized thiolated-S1P conjugated to BSA in binding buffer (33.6 mM Na2CO3, 100 mM NaHCO3; pH 9.5). The thiolated-S1P-BSA was incubated at 37° C. for 1 hr. at 4° C. overnight in the ELISA plate wells. The plates were then washed four times with PBS (137 mM NaCl, 2.68 mM KCl, 10.14 mM Na2HPO4, 1.76 mM KH2PO4; pH 7.4) and blocked with PBST for 1 hr. at room temperature. For the primary incubation step, 75 uL of the sample (containing the S1P to be measured), was incubated with 25 uL of 0.1 ug/mL anti-S1P mAb diluted in PBST and added to a well of the ELISA plate. Each sample was performed in triplicate wells. Following a 1 hr. incubation at room temperature, the ELISA plates were washed four times with PBS and incubated with 100 ul per well of 0.1 ug/mL HRP goat anti-mouse secondary (Jackson Immunoresearch) for 1 hr. at room temperature. Plates were then washed four times with PBS and exposed to tetramethylbenzidine (Sigma) for 1-10 minutes. The detection reaction was stopped by the addition of an equal volume of 1M H2SO4. Optical density of the samples was determined by measurement at 450 nm using an EL-X-800 ELISA plate reader (Bio-Tech).
For cross reactivity, a competitive ELISA was performed as described above, except for the following alterations. The primary incubation consisted of the competitor (S1P, SPH, LPA, etc.) and a biotin-conjugated anti-S1P mAb. Biotinylation of the purified monoclonal antibody was performed using the EZ-Link Sulfo-NHS-Biotinylation kit (Pierce). Biotin incorporation was determined as per kit protocol and ranged from 7 to 11 biotin molecules per antibody. The competitor was prepared as follows: lipid stocks were sonicated and dried under argon before reconstitution in DPBS/BSA [1 mg/ml fatty acid free BSA (Calbiochem) in DPBS (Invitrogen 14040-133)]. Purified anti-S1P mAb was diluted as necessary in PBS/0.5% Triton X-100. Competitor and antibody solutions were mixed together so to generate 3 parts competitor to 1 part antibody. A HRP-conjugated streptavidin secondary antibody (Jackson Immunoresearch) was used to generate signal.
i. Specificity. The humanized variants were tested for specificity in a competitive ELISA assay (FIG. 1) against S1P and several other biolipids. This assay has the added benefit to allow for epitope mapping.

[2] = test system: CNV lesions after laser-induced rupture of Bruch's membrane; assay: Murine model of laser-induced CNV and scar formation (Example 4); format: in vivo, mouse; conditions: 0.5 ug
Protocol: Female C57BL6/J mice were subjected to laser-induced rupture of Bruch's membrane and administered either 0.5 μg of Sphingomab or an isotype-matched non-specific (NS) antibody diluted in 2 μl of physiological saline. Mice were sacrificed 14 and 28 days after laser rupture.
To induce CNV lesions, the pupils were dilated with ophthalmic tropicamide (0.5%) and phenylephrine (2.5%). A coverslip was placed on the eye. An Oculight GL 532 nm (Iridex Corporation, Mountain View, Calif.) coupled to a slit lamp set to deliver a 100 msec pulse at 150 mW with a 50 μm spot size was used to rupture Bruch's membrane in three quadrants of the right eye located approximately 50 μm from the optic disc at relative 9, 12 and 3 o'clock positions. The left eye served as an uninjured control in all cases. Any lesion not associated with a vapor bubble or lesions that became confluent were excluded from analysis. […]
To assess collagen deposition, the sclera-choroid-RPE complex was stained with Masson's Trichrome. […] Approximately 30 sections per lesion were evaluated. Quantitation of the volume of collagen deposition was calculated in the same manner as described for CNV lesion volume.
Captured digital images were evaluated morphometrically using ImageJ software (Research Services Branch, National Institutes of Health, Bethesda, Md.).

[3] = test system: murine cardiac fibroblasts; assay: S1P-stimulated cardiac fibroblast migration, scratch assay; format: cell-based, mouse; conditions: 1 ug/mL antibody, 12-24 hr
Protocol: FIG. 7. […] See Example 7, below, for experimental details. […] In these experiments, fibroblasts were serum-starved and then treated with 0, 0.1, 0.5, or 1 μM S1P+/−1 μg/mL SPHINGOMAB for 12-24 hr. […] SPHINGOMAB neutralized each of these S1P effects. SPHINGOMAB reduced perivascular fibrosis in vivo in a murine model of a permanent myocardial infarction (E).
S1P makes profound contributions to wound healing by activating fibroblast migration, proliferation and collagen production; SPHINGOMAB neutralizes these effects. Several studies using multiple types of fibroblasts confirm S1P's ability to promote wound healing: 1) S1P increased Swiss-3T3 fibroblast proliferation as measured by ^3H-thymidine incorporation using standard methods (FIG. 7A); 2) S1P promoted the migration of cardiac fibroblasts in a standard scratch wound healing assay. […] In each of these assays, SPHINGOMAB neutralized S1P's. It is anticipated that ocular fibroblasts would respond similarly to S1P and SPHINGOMAB.

B1: LT1002: murine anti-S1P monoclonal antibody, IgG1 kappa, hybridoma clone 306D326.26 (antibody, listed as Mus sp., V domains shown)
VH: QAHLQQSDAELVKPGASVKISCKVSGFIFIDHTIHWMKQRPEQGLEWIGCISPRHDITKYNEMFRGKATLTADKSSTTAYIQVNSLTFEDSAVYFCARGGFYGSTIWFDFWGQGTTLTVS
VL: ETTVTQSPASLSMAIGEKVTIRCITTTDIDDDMNWFQQKPGEPPNLLISEGNILRPGVPSRFSSSGYGTDFLFTIENMLSEDVADYYCLQSDNLPFTFGSGTKLEIK
Specificity (ELISA) ([1]; In vitro activity, Table 7): High
recognition of ceramide-1-phosphate (C1P) ([1]; listed as SPHINGOMAB): did not recognize
recognition of ceramide-1-phosphate (C1P) ([1]; listed as anti-S1P mAb): no antibody binding was observed
cross-reactivity with dihydrosphingosine-1-phosphate (DH-S1P) ([1]; competitor lipid DH-S1P): did cross react
recognition of dihydrosphingosine (DH-SPH) ([1]; competitor lipid DH-SPH): did not recognize
cross-reactivity to lysophosphatidic acid (LPA) ([1]; listed as SPHINGOMAB): no cross-reactivity
cross-reactivity to lysophosphatidic acid (LPA) ([1]; listed as anti-S1P mAb): no binding
recognition of phosphatidyl ethanolamine (PE) ([1]; competitor lipid PE): did not recognize
recognition of phosphatidyl serine (PS) ([1]; competitor lipid PS): did not recognize
recognition of sphingomyelin (SM) ([1]; competitor lipid SM): did not recognize
cross-reactivity with sphingosylphosphorylcholine (SPC) ([1]; listed as SPHINGOMAB): to a lesser extent
cross-reactivity with sphingosylphosphorylcholine (SPC) ([1]; listed as anti-S1P mAb): somewhat reduced
cross-reactivity to sphingosine (SPH) ([1]; competitor lipid SPH): no cross-reactivity
choroidal neovascularization ([2]; 14 and 28 days after laser-induced rupture of Bruch's membrane): dramatically attenuates
fibrosis associated with CNV lesion formation ([2]; 28 days after laser-induced rupture): significantly reduces
S1P-promoted cardiac fibroblast migration [3]: neutralized
